Assay results as given in the supplement of paper PMC7125110.
± gives the standard error. Variants at the floor of the assay were thinned out.

B1: glmS ribozyme (parent)
chain: AUAAAAGCGCCAGAACUACAGAAAUGUAGUUGACGAGGAGGAGGUUUAUCGAAUUUUCGGCGGAUGCCUCCAAA

Columns and labels:
Details in all cases: with glucosamine-6-phosphate
glucosamine-6-phosphate [1] = variants of: B1; test: self-cleavage kobs at 640 uM GlcN6P; higher = faster cleavage; RNA array
Outline: (§1)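 Tracking of barcoded ribozyme variants used a hybridised Cy3 probe at 37 °C, after in situ transcription by E. coli RNA polymerase on sequenced MiSeq chips. The flowed solution held 40 μM to 10 mM glucosamine-6-phosphate in HEPES/KCl/Mg(OAc)2 buffer, and imaging ran over ~14 h. kobs was taken from exponential decay fits of normalised per-tile medians, and kcat and KM from weighted Michaelis–Menten fits.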

glucosamine-6-phosphate [2] = variants of: B1; test: self-cleavage kobs at 2500 uM GlcN6P; higher = faster cleavage; RNA array
Outline: as §1

glucosamine-6-phosphate [3] = variants of: B1; test: self-cleavage kobs at 10000 uM GlcN6P; higher = faster cleavage; RNA array
Outline: as §1

Variant	self-cleavage kobs at 640 uM GlcN6P (glucosamine-6-phosphate [1]) [s⁻¹]	self-cleavage kobs at 2500 uM GlcN6P (glucosamine-6-phosphate [2]) [s⁻¹]	self-cleavage kobs at 10000 uM GlcN6P (glucosamine-6-phosphate [3]) [s⁻¹]
A6C C10A G32A G51A A52G A53G G59C G63U C68A	0.000154 ± 5.6e-05		
G21A G44U	9.22e-05 ± 2.3e-05	0.000164 ± 3.3e-05	
C11A G63A C67A U69C	< 1e-05		
G9U C34G C58U	< 1e-05	< 1e-05	
G9A A36G A39C C70G	< 1e-05	< 1e-05	
A14U U31A G37C G59C	< 1e-05	< 1e-05	
G29U A36U U69G	0.00026 ± 0.00011	0.000178 ± 7.3e-05	
G29U A39G A53U	0.00124 ± 0.00019		
C8A C16U C50U U56G	< 1e-05		
G9U G13U G29U G37C	< 1e-05	< 1e-05	
C10A G38A G51U C70G	5.43e-05 ± 1.7e-05		
G9A G66U	< 1e-05	< 1e-05	
C10G C68G C70U	9.88e-05 ± 3.1e-05		
G35A A39C U47C U56G	< 1e-05		
A6G A48U C61U	< 1e-05	< 1e-05	
U45G U46C G59U U65G U69G	< 1e-05	< 1e-05	
A53C U55G C71G	0.000116 ± 3.1e-05		
A36G U45A C61U U69G C70A	< 1e-05	< 1e-05	
A6U G38C C61U	< 1e-05		
A15G G38A G66U	< 1e-05		
A6G G9U	< 1e-05	< 1e-05	< 1e-05
A33G A53C A64U	< 1e-05		
G32C U56A	3.99e-05 ± 1.8e-05	2.05e-05 ± 9.8e-06	5.18e-05 ± 7.3e-06
A6U G13U G29U C70G	4.98e-05 ± 2.3e-05		
G59U G62A U65A	< 1e-05	< 1e-05	
G41U C50U G63U	< 1e-05	< 1e-05	< 1e-05

Variant	self-cleavage kobs at 640 uM GlcN6P (glucosamine-6-phosphate [1]) [s⁻¹]	self-cleavage kobs at 2500 uM GlcN6P (glucosamine-6-phosphate [2]) [s⁻¹]	self-cleavage kobs at 10000 uM GlcN6P (glucosamine-6-phosphate [3]) [s⁻¹]
G13U U45G C67G	< 1e-05		
G9U C70G	< 1e-05	< 1e-05	< 1e-05
G32A G51U C68G	0.000156 ± 5.8e-05		
A12C C34G G40U	< 1e-05	< 1e-05	
C10G G38A U47C A52C	< 1e-05		
A36G G37U A42C G44U	< 1e-05		< 1e-05
C11G A33U C58U	< 1e-05		
A48C U56G G60A C61G	< 1e-05		
G9U U49A C71A	< 1e-05		
A14U G38A A53G G63U	< 1e-05		
C8G G66C	< 1e-05	< 1e-05	
C11G A64U	< 1e-05	< 1e-05	
G51A G63U C70G	7.13e-05 ± 2.7e-05		
A15C U49G G62U A64C C70U	< 1e-05		
C10U C34G U46A A48U U69A	< 1e-05	< 1e-05	< 1e-05
G40U G41U C68U	< 1e-05	< 1e-05	
G9U U54C C68U	< 1e-05		
G35A A39U G51C	< 1e-05	< 1e-05	
A6U G7A G59A	< 1e-05		
G13A A53C	4.8e-05 ± 1.4e-05	3.79e-05 ± 1.2e-05	0.000139 ± 1.3e-05
G43C A53U U55A U57A	< 1e-05		
G13U A42C A48U A53C G60C	< 1e-05	< 1e-05	
C11A G59U C70G C71U	0.000202 ± 5.2e-05	0.00032 ± 6.5e-05	0.00015 ± 4.4e-05
C16U G35C A53U C58U	< 1e-05	< 1e-05	
A14C C34G A36C G59C	< 1e-05		
U54A U55G A64C	3.35e-05 ± 1.7e-05	5.81e-05 ± 1.7e-05	

Variant	self-cleavage kobs at 640 uM GlcN6P (glucosamine-6-phosphate [1]) [s⁻¹]	self-cleavage kobs at 2500 uM GlcN6P (glucosamine-6-phosphate [2]) [s⁻¹]	self-cleavage kobs at 10000 uM GlcN6P (glucosamine-6-phosphate [3]) [s⁻¹]
G9C C67A C71U	< 1e-05	< 1e-05	
A48U U57G G62U	< 1e-05	< 1e-05	
A33C C34G A53C U57A G66C	< 1e-05		
A14G G44U U46A	0.000181 ± 4.5e-05	0.000253 ± 8.6e-05	
C11A A14U A15G G35C U45A G60U	< 1e-05		
U30G A52C C71G	< 1e-05		
C16G G43U G66A	< 1e-05		
A15C C16G U55C C61G	< 1e-05		
G32A U69A C70G	4.23e-05 ± 1.9e-05		
G13A A52C G63U	< 1e-05		
G9A C11U G29C G35U G59C	< 1e-05	< 1e-05	
G35A G59A G62U	< 1e-05		
A33C U54G A64C C70G	< 1e-05	< 1e-05	
G32U A33U G35U A36C C50U	< 1e-05		
G35A G60U C70G	< 1e-05	< 1e-05	
G38U U46A G59A C70A	< 1e-05	< 1e-05	
G7U G37A A39C	< 1e-05	< 1e-05	
C16U G29U G40U G62C	< 1e-05		
G29U G43C U56C	< 1e-05		
A6C C10A A15G C16G G63A	< 1e-05	< 1e-05	< 1e-05
G43A C50A	< 1e-05		
C10U G43A C50A	< 1e-05		
C50G G63C C67U	0.000103 ± 4.4e-05		
C11A A12C A42C	< 1e-05	< 1e-05	
G13A C61U	< 1e-05	< 1e-05	< 1e-05
G29U U55A A64G	0.000889 ± 0.00022	0.00375 ± 0.00061	

Variant	self-cleavage kobs at 640 uM GlcN6P (glucosamine-6-phosphate [1]) [s⁻¹]	self-cleavage kobs at 2500 uM GlcN6P (glucosamine-6-phosphate [2]) [s⁻¹]	self-cleavage kobs at 10000 uM GlcN6P (glucosamine-6-phosphate [3]) [s⁻¹]
C8U U31G G43A	< 1e-05		
A12C G38A A52U	< 1e-05		
C34A A39C G41A G66U	< 1e-05	< 1e-05	
A6C G44A A64G	< 1e-05		
G29A A42G U56G	0.000337 ± 0.00011	0.00148 ± 0.00036	
G9C U69G	< 1e-05	< 1e-05	< 1e-05
U46G U49C U55G	< 1e-05	< 1e-05	
A48G A53C C58U G59U	< 1e-05		
U30C G35A C71A	< 1e-05		
G44U G51A C68U	< 1e-05	< 1e-05	
A15C G32A U55C G59U	< 1e-05		
A52G U56G C67A U69C	9.46e-05 ± 1.8e-05	0.000192 ± 5.3e-05	0.000295 ± 8.2e-05
U47C U69C	0.000374 ± 0.00011	0.00197 ± 0.00045	
A39G G51A	< 1e-05	< 1e-05	
A33G A36G U47G C71G	0.000121 ± 4.4e-05		
G44A A53U C67A	0.00108 ± 0.00027	0.00591 ± 0.0013	
C8G A12C C71A	< 1e-05	< 1e-05	
G37A A42U G44C G59A	< 1e-05	< 1e-05	
A42C G43U U57A	< 1e-05	< 1e-05	< 1e-05
G40A G44U	< 1e-05		
G29A G40U G41C	< 1e-05		
U45A A48C G60U C67U	< 1e-05		
A52U C68G	0.000375 ± 0.00018	4.62e-05 ± 8.4e-06	1.85e-05 ± 7.8e-06
G35C A42C C50U G51U	< 1e-05		
A12C G41U U46G	8.69e-05 ± 1.8e-05	7.37e-05 ± 2.8e-05	
A39G G41A U49C	< 1e-05		

Variant	self-cleavage kobs at 640 uM GlcN6P (glucosamine-6-phosphate [1]) [s⁻¹]	self-cleavage kobs at 2500 uM GlcN6P (glucosamine-6-phosphate [2]) [s⁻¹]	self-cleavage kobs at 10000 uM GlcN6P (glucosamine-6-phosphate [3]) [s⁻¹]
U30G G40C A53G G62C	< 1e-05		
A12U A15G A42U	0.000151 ± 4.6e-05		
C16G A33C G38U A52U	< 1e-05		
G29U A33C C34A G37A C50U U69G	0.000251 ± 5.9e-05		0.000226 ± 4.5e-05
U31C G37A C70G	< 1e-05		
A14U A53U C67G	0.000162 ± 4.5e-05		
C10U U31A G40U U49C C58U G59U C70G	< 1e-05		
G44A C50U G63U	< 1e-05		
A14U C34U A52G	< 1e-05	< 1e-05	< 1e-05
A33U G35A A39G G44U C61U G62U	< 1e-05	< 1e-05	
G7C G26U G29U U57C A64U U65C	< 1e-05		
U31C A39U C67A	0.000787 ± 0.00025	0.000712 ± 0.00021	0.000846 ± 0.0002
A12U G13A G29A U45G	< 1e-05	< 1e-05	
G37U G41A G63U A64G	< 1e-05		
C11U G13C G37C	< 1e-05	< 1e-05	< 1e-05
C8G C50G C61U A64U	0.00078 ± 0.00019	0.00023 ± 6.3e-05	
A14U U30C U49A C50A C70G	8.96e-05 ± 2.3e-05		
A12C A15C U30G U49G G59A A64G	< 1e-05	< 1e-05	
G13C G59A	< 1e-05		< 1e-05
G35A C50G C68U C70G	0.000738 ± 0.00024	0.000111 ± 4.4e-05	
C11U U54G G59A	0.00194 ± 0.00054	0.00627 ± 0.002	
G37C G60U U69A	< 1e-05	< 1e-05	
U45A U57A	0.000159 ± 4.5e-05	0.000423 ± 7.9e-05	
G35A A53C G63C	< 1e-05	< 1e-05	
C16G U56A C71G	7.67e-05 ± 1.7e-05		
